Source: US20120107244A1 (UNIVERSIT T ULM, published 2012)

Target: the molecule itself
Assay: gel filtration (Superdex 200); elution volume against monomer, dimer and tetramer standards

B1: monomeric eqFP611 variant as set forth in SEQ ID No. 1 (mRuby) (other)
chain: MNSLIKENMRMKVVLEGSVNGHQFKCTGEGEGNPYMGTQTMRIKVIEGGPLPFAFDILATSFMYGSRTFIKYPKGIPDFFKQSFPEGFTWERVTRYEDGGVITVMQDTSLEDGCLVYHAQVRGVNFPSNGAVMQKKTKGWEPNTEMMYPADGGLRGYTHMALKVDGGGHLSCSFVTTYRSKKTVGNIKMPGIHAVDHRLERLEESDNEMFVVQREHAVAKFAGLGGG
notes: not shown: N-terminal poly-His tag from the pQE-32 vector
B1: no binding (tested: 4-30 mg/ml (0.16-1.2 mM)).
